Results published in patent US20250084126A1, “PEPTIDE AND COMPOSITION” (OSAKA UNIVERSITY, priority 2021, published 2025).

Legend:
[1] = test system: exposed pulp of rat maxillary first molars; assay: Direct pulp capping experiment using S100-A7 and S100-A7 reacted with MMP20; type: in vivo; settings: rat molar, gelatin sponge with 20 μl of 1 μg/ml in PBS, 4 weeks after pulp capping, n=3
Method: Eight-week-old male Wistar rats were injected intraperitoneally with pentobarbital sodium (SomnoPentyl (Trade Mark), Kyoritsu Seiyaku Corporation, Tokyo) (30 mg/kg) as general anesthesia, and carprofen (Rimadyl®, Pfizer, USA) (3 mg/kg) was administered for pain relief. The tooth to be treated was isolated by rubber dam dry field technique, and a surface and surrounding tissue of the tooth were cleaned with an alcohol-soaked cotton ball, and then a cavity was formed using the following method based on the report by Komichi et al. [Non Patent Literature 1]. […] Maxillas, including the test teeth, were then resected and soft tissues were removed, and evaluated by the following methods. […]
Image analysis using the micro-CT (R-mCT2™M, Rigaku Corporation, Tokyo) was performed for quantitative evaluation of the formed tertiary dentin in the samples after the direct pulp capping. […] A CT value equivalent to that of the primary dentin was set as a threshold for extracting the tertiary dentin, and the area of the newly formed tertiary dentin was calculated from a binarized image. The area of the newly formed tertiary dentin was measured in each section, and the volume of the newly formed tertiary dentin was calculated by summing all of the measurements. […]

pulp cells = settings: reported in Non Patent Literature 1; cited from earlier work
exposed pulp = settings: rat in vivo, reported in Non Patent Literature 1; cited from earlier work

B1: S100-A7: Protein S100-A7 (PROSPEC, Israel), human-derived Protein S100 (protein, UniProt P31151 2-101, looked up)
Protein S100-A7: SNTQAERSIIGMIDMFHKYTRRDDKIEKPSLLTMMKENFPNFLSACDKKGTNYLADVFEKKDKNEDKKIDFSEFLSLLGDIATDYHKQSHGAAPCSGGSQ
For B1, the “tertiary dentin formation (micro-CT analysis)” value [1] is given as “completely covering the exposed region of pulp”, the “effect on pulp cells in vitro” value (pulp cells) is given as “activates proliferation, differentiation, and mineralization abilities” and the “tertiary dentin induction in the direct pulp capping experiment” value (exposed pulp) is given as “completely covers the surface of the exposed pulp”.
